According to US20150004129A1:
Blank lines part the entries; values can stand above or below the substance they belong to.

How the values were obtained:
[1] = molecular target: Flag-CD40L (AA 116 to 261) (human) (UniProt P29965); experiment: competitive ELISA; receptor/Fc coated, sCD40L at constant concentration, competitor titrated with 1 ug/ml protein A
[2] = molecular target: Flag-CD40L (AA 116 to 261) (human) (UniProt P29965); experiment: competitive ELISA; receptor/Fc coated, sCD40L at constant concentration, competitor titrated
[3] = molecular target: Flag-FasL (soluble FasL) (UniProt P48023); experiment: BIAcore; 7 ul of 2.5 ug/ml Flag-FasL over immobilised M2 antibody
[4] = molecular target: Flag-TRAIL (UniProt P50591); experiment: BIAcore; 7 ul of 2.5 ug/ml Flag-TRAIL over immobilised M2 antibody
[5] = molecular target: Flag-FasL (soluble FasL) (UniProt P48023); experiment: cell-based or functional assay
[6] = molecular target: Flag-FasL (soluble FasL) (UniProt P48023); experiment: BIAcore; Flag-FasL captured on immobilised M2 anti-Flag antibody
[7] = molecular target: Flag-FasL (soluble FasL) (UniProt P48023); experiment: BIAcore; Flag-FasL captured on immobilised M2 anti-Flag antibody, receptor fusion protein injected

Chain of UniProt P48023 (P48023 other isoform, or with tags, fused parts or gaps): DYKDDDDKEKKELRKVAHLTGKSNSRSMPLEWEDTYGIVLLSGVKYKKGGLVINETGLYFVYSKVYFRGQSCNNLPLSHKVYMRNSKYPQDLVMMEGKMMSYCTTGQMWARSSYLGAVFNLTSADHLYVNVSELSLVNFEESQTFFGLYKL
Chain of UniProt P29965 (P29965 other isoform, or with tags, fused parts or gaps): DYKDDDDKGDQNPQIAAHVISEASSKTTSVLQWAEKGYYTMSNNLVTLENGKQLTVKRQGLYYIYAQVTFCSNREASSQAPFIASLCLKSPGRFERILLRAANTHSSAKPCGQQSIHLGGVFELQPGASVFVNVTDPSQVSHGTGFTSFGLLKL

Substance: CD40:Fc cross-linked with protein A (from UniProt P25942 1-193)
- fold increase in the affinity against CD40:Fc [1]: 8 fold

Substance: CD40:COMP fusion protein (from UniProt P25942 1-193) (receptor)
- fold increase in the affinity against CD40:Fc [2]: 30 fold

Substance: Fas:Fc fusion protein (from UniProt P25445 26-170)
- protection of A20 cells exposed to a lethal dose of soluble FasL (cytotoxicity test) [5]: < 50%

More lines, now with the values ahead:

- units bound (BIAcore) [3]: 100 to 150 units
- units bound (BIAcore) [4]: 100 to 150 units
Substance: M2 anti-Flag monoclonal antibody

- inhibitory activity against sFasL-mediated lysis, fold against Fas:Fc [5]: 10 to 20 fold
- fold lower dissociation constant than Fas:Fc [6]: 8 to 9 fold
- Kd [7]: 0.77 nM
Substance: Fas:COMP fusion protein (from UniProt P25445 26-170) (receptor)
